Results published in patent US20190119318A1.
Values joined by “and” are separate entries in the source; they are usually repeats but may differ in a detail not shown here. Equal entries are not always repeated.

Tests used:
[1] = target: human polyclonal IgG (Gammanorm) (human); assay: column DBC; base A43; ligand 6.99 mg/ml
[2] = target: human polyclonal IgG (Gammanorm) (human); assay: column DBC; base C2; ligand […]
[3] = target: human polyclonal IgG (Gammanorm) (human); assay: column DBC; base A20; ligand 7.3 mg/ml
[4] = target: human polyclonal IgG (Gammanorm) (human); assay: column DBC; base A32; ligand 13.3 mg/ml
[5] = target: human polyclonal IgG (Gammanorm) (human); assay: column DBC; base A29; ligand 7.3 mg/ml
[6] = target: human polyclonal IgG (Gammanorm) (human); assay: column DBC; base C2; ligand 10.5 mg/ml
[7] = target: human polyclonal IgG (Gammanorm) (human); assay: column DBC; base A33; ligand 7.33 mg/ml
[8] = target: human polyclonal IgG (Gammanorm) (human); assay: column DBC; base A63a; ligand 14.0 mg/ml
[9] = target: human polyclonal IgG (Gammanorm) (human); assay: column DBC; base A32; ligand […]
[10] = target: human polyclonal IgG (Gammanorm) (human); assay: column DBC; base A41; ligand 8.83 mg/ml
[11] = target: human polyclonal IgG (Gammanorm) (human); assay: column DBC; base A62a; ligand 6.6 mg/ml
[12] = target: human polyclonal IgG (Gammanorm) (human); assay: column DBC; base A40; ligand 13.15 mg/ml
[13] = target: human polyclonal IgG (Gammanorm) (human); assay: column DBC; base A39; ligand 7.0 mg/ml
[14] = target: human polyclonal IgG (Gammanorm) (human); assay: column DBC; base C1; ligand 10.8 mg/ml
[15] = target: human polyclonal IgG (Gammanorm) (human); assay: column DBC; base A39; ligand 10.48 mg/ml
[16] = target: human polyclonal IgG (Gammanorm) (human); assay: column DBC; base A63a; ligand 6.1 mg/ml
[17] = target: human polyclonal IgG (Gammanorm) (human); assay: column DBC; base A18; ligand 8.2 mg/ml
[18] = target: human polyclonal IgG (Gammanorm) (human); assay: column DBC; base A38; ligand 11.34 mg/ml
[19] = target: human polyclonal IgG (Gammanorm) (human); assay: column DBC; base A29; ligand 11 mg/ml
[20] = target: human polyclonal IgG (Gammanorm) (human); assay: column DBC; base A65b; ligand […]
[21] = target: human polyclonal IgG (Gammanorm) (human); assay: column DBC; base H40; ligand […]
[22] = target: human polyclonal IgG (Gammanorm) (human); assay: column DBC; base B5; ligand 6.3 mg/ml
[23] = target: human polyclonal IgG (Gammanorm) (human); assay: column DBC; base A42; ligand […]
[24] = target: human polyclonal IgG (Gammanorm) (human); assay: column DBC; ligand 13 mg/ml; before incubation in 1 M NaOH
[25] = target: human polyclonal IgG (Gammanorm) (human); assay: column DBC; base A62a; ligand 6.4 mg/ml
[26] = target: human polyclonal IgG (Gammanorm) (human); assay: column DBC; base A40; ligand 11.03 mg/ml
[27] = target: human polyclonal IgG (Gammanorm) (human); assay: column DBC; base A41; ligand 5.0 mg/ml
[28] = target: human polyclonal IgG (Gammanorm) (human); assay: column DBC; base A27; ligand […]
[29] = target: human polyclonal IgG (Gammanorm) (human); assay: column DBC; base A62b; ligand […]; details: ligand content 5.2 mg/ml
[30] = target: human polyclonal IgG (Gammanorm) (human); assay: column DBC; base A43; ligand 10.51 mg/ml
[31] = target: human polyclonal IgG (Gammanorm) (human); assay: column DBC; base A27; ligand 7.5 mg/ml
[32] = target: human polyclonal IgG (Gammanorm) (human); assay: column DBC; base A39; ligand 6.96 mg/ml
[33] = target: human polyclonal IgG (Gammanorm) (human); assay: column DBC; base A65a; ligand 13.1 mg/ml
[34] = target: human polyclonal IgG (Gammanorm) (human); assay: column DBC; base B5; ligand 9.6 mg/ml
[35] = target: human polyclonal IgG (Gammanorm) (human); assay: column DBC; base A38; ligand 7.45 mg/ml
[36] = target: human polyclonal IgG (Gammanorm) (human); assay: column DBC; base C4; ligand […]

Question: How did the Qb10% 2.4 min [1] turn out when “Zvar(Q9A,N11E,Q40V,A42K,N43A,L44I)4 (designed binder)” was run?
Answer: 33.4 mg/mL

Question: And the Qb10% 6 min [1]?
Answer: 49.8 mg/mL

Question: And the Qb10% 2.4 min [2]?
Answer: 39 mg/mL

Question: What about the Qb10% 6 min [2] of the same substance?
Answer: 46 mg/mL

Question: And the Qb10% 2.4 min [3]?
Answer: 45.1 mg/mL and 45 mg/mL

Question: And the Qb10% 6 min [3]?
Answer: 57.2 mg/mL and 57 mg/mL

Question: And the Qb10% 2.4 min [4]?
Answer: 37 mg/mL

Question: And the Qb10% 6 min [4]?
Answer: 66 mg/mL

Question: What about the Qb10% 2.4 min [5] of the same substance?
Answer: 36.3 mg/mL

Question: And the Qb10% 6 min [5]?
Answer: 51.8 mg/mL

Question: And the Qb10% 2.4 min [6]?
Answer: 42 mg/mL

Question: And the Qb10% 6 min [6]?
Answer: 57 mg/mL

Question: And the Qb10% 2.4 min [7]?
Answer: 48.7 mg/mL

Question: What about the Qb10% 6 min [7] of the same substance?
Answer: 55.8 mg/mL

Question: And the Qb10% 2.4 min [8]?
Answer: 48 mg/mL

Question: What about the Qb10% 6 min [8] of the same substance?
Answer: 56 mg/mL

Question: What about the Qb10% 2.4 min [9] of the same substance?
Answer: 40 mg/mL

Question: And the Qb10% 6 min [9]?
Answer: 57 mg/mL

Question: And the Qb10% 2.4 min [10]?
Answer: 38.5 mg/mL and 37.8 mg/mL and 35.1 mg/mL

Question: And the Qb10% 6 min [10]?
Answer: 56.8 mg/mL and 58.6 mg/mL and 57.2 mg/mL

Question: And the Qb10% 2.4 min [11]?
Answer: 41 mg/mL

Question: What about the Qb10% 6 min [11] of the same substance?
Answer: 46 mg/mL

Question: And the Qb10% 2.4 min [12]?
Answer: 56.9 mg/mL

Question: What about the Qb10% 6 min [12] of the same substance?
Answer: 71.1 mg/mL

Question: What about the Qb10% 2.4 min [13] of the same substance?
Answer: 42 mg/mL

Question: What about the Qb10% 6 min [13] of the same substance?
Answer: 55 mg/mL

Question: And the Qb10% 2.4 min [14]?
Answer: 43 mg/mL

Question: What about the Qb10% 6 min [14] of the same substance?
Answer: 60 mg/mL

Question: And the Qb10% 2.4 min [15]?
Answer: 44.4 mg/mL

Question: What about the Qb10% 6 min [15] of the same substance?
Answer: 64.8 mg/mL

Question: What about the Qb10% 2.4 min [16] of the same substance?
Answer: 39 mg/mL

Question: What about the Qb10% 6 min [16] of the same substance?
Answer: 44 mg/mL

Question: What about the Qb10% 2.4 min [17] of the same substance?
Answer: 52 mg/mL

Question: And the Qb10% 6 min [17]?
Answer: 59 mg/mL

Question: And the Qb10% 2.4 min [18]?
Answer: 48.1 mg/mL

Question: What about the Qb10% 6 min [18] of the same substance?
Answer: 72.8 mg/mL

Question: What about the Qb10% 2.4 min [19] of the same substance?
Answer: 34.9 mg/mL

Question: And the Qb10% 6 min [19]?
Answer: 64.7 mg/mL

Question: What about the Qb10% 2.4 min [20] of the same substance?
Answer: 42 mg/mL

Question: What about the Qb10% 6 min [20] of the same substance?
Answer: 46 mg/mL

Question: And the Qb10% 2.4 min [21]?
Answer: 47 mg/mL

Question: And the Qb10% 6 min [21]?
Answer: 52 mg/mL

Question: What about the Qb10% 2.4 min [22] of the same substance?
Answer: 32 mg/mL

Question: And the Qb10% 6 min [22]?
Answer: 38 mg/mL

Question: What about the Qb10% 2.4 min [23] of the same substance?
Answer: 32.2 mg/mL

Question: And the Qb10% 6 min [23]?
Answer: 57.8 mg/mL

Question: And the Qb10%, 6 min, before incubation [24]?
Answer: 79 mg/mL

Question: And the Qb10% 2.4 min [25]?
Answer: 43 mg/mL

Question: What about the Qb10% 6 min [25] of the same substance?
Answer: 45 mg/mL

Question: And the Qb10% 2.4 min [26]?
Answer: 55 mg/mL

Question: What about the Qb10% 6 min [26] of the same substance?
Answer: 73.8 mg/mL

Question: What about the Qb10% 2.4 min [27] of the same substance?
Answer: 35.6 mg/mL

Question: And the Qb10% 6 min [27]?
Answer: 46 mg/mL

Question: And the Qb10% 2.4 min [28]?
Answer: 24.8 mg/mL

Question: And the Qb10% 6 min [28]?
Answer: 55.6 mg/mL

Question: And the Qb10% 2.4 min [29]?
Answer: 40 mg/mL

Question: And the Qb10% 2.4 min [30]?
Answer: 31.8 mg/mL

Question: What about the Qb10% 6 min [30] of the same substance?
Answer: 58 mg/mL

Question: What about the Qb10% 2.4 min [31] of the same substance?
Answer: 29.2 mg/mL

Question: What about the Qb10% 6 min [31] of the same substance?
Answer: 48.7 mg/mL

Question: And the Qb10% 2.4 min [32]?
Answer: 41.9 mg/mL

Question: What about the Qb10% 6 min [32] of the same substance?
Answer: 54.7 mg/mL

Question: What about the Qb10% 2.4 min [33] of the same substance?
Answer: 56 mg/mL

Question: And the Qb10% 6 min [33]?
Answer: 64 mg/mL

Question: What about the Qb10% 2.4 min [34] of the same substance?
Answer: 45 mg/mL

Question: What about the Qb10% 6 min [34] of the same substance?
Answer: 47 mg/mL

Question: What about the Qb10% 2.4 min [35] of the same substance?
Answer: 44.4 mg/mL

Question: And the Qb10% 6 min [35]?
Answer: 58.2 mg/mL

Question: And the Qb10% 2.4 min [36]?
Answer: 59 mg/mL

Question: And the Qb10% 6 min [36]?
Answer: 67 mg/mL
